{"source": "patent US20240254203A1", "about": "(ACHELOIS BIOPHARMA, published 2024)", "binders": {"B1": {"name": "9A1 (antibody, V domains shown)", "VH": "EVQLLESGGGVVQPGRSLRLSCVVSGFTFNNYGMHWVRQAPGKGLEWVAVISYEGSVKYYGDHVDGRFTISRDPFKNTLYLHMNNLRPDDTAVYYCAKVSAIFWLGQGLSPIDVWGQGTTVTVSS", "VL": "DIVMTQSPATLSASPGERVTLSCRASQNIRNNLAWYQQKPGQAPRLLIHGASTRAAGAPARFSGSGSDTQFTLTVSSLQSEDFAVYYCHQYSKWPVTFGGGTKVDIK"}, "B2": {"name": "2M-14E5 (antibody, V domains shown)", "VH": "EVQLVESGGGVVQPGRSLRLSCAASGFTFSTYSMHWVRQAPGKGLEWVAVISYDGSNKYYADSVKGRFTISRDNSKNTLYLQVNSLRAEDTAVYYCARSGGGSYRGPFDYWGQGTLVTVSS", "VL": "AIRMTQSPSFLSVSVGDRVTITCRASQGISSYLAWYQQKPGKAPKLLIYAASTLQSGVPSRFSGSGSGTEFTLTISSLQPEDFATYYCQQLNSYVTFGGGTKVEIK"}, "B3": {"name": "0304-4A10 (antibody, V domains shown)", "VH": "EVQLVESGGGLVQPGGSLRLSCAASGFTFSTYAMHWVRQAPGKGLEYVSGISSNGGSTYYANSVKGRFTISRDNSKNTLYIQMGSLRAEDMAVYYCARSSSRGFDYWGQGTLVTVSS", "VL": "not shown"}, "B4": {"name": "C018 (antibody, V domains shown)", "VH": "not shown", "VL": "DIQLTQSPSSLSASVGDRVTITCRASQSIRSYLNWYQQKPGKAPKLLIYAASSLQSGVPSRFSGSGSGTDFTLTISSLQPDDFATYYCQQSYSTPPATFGQGTKLEIK"}, "B5": {"name": "C021 (antibody, V domains shown)", "VH": "QVQLQESGPGLVKPSQTLSLTCTVSGGSISSGGYYWSWIRQHPGKGLEWIGYIYYSGSTYYNPSLKSRVTISVDTSKNQFSLKLSSVTAADTAVYYCARVWQYYDSSGSFDYWGQGTLVTVSS", "VL": "not shown"}, "B6": {"name": "2M-10B11 (antibody, V domains shown)", "VH": "EVQLVESGGGLVQPGGSLRLSCAASGFTVSSNYMSWVRQAPGKGLEWVSVIYSGGSTYYADSVKGRFTISRDNSKNTLYLQMNSLRAEDTAVYYCARATWLRGVMDVWGQGTTVTVSS", "VL": "QSALTQPHSVSESPGKTVTISCTGSSGSIASNYVQWYQQRPGSAPTTVIYEDNQRPSGVPDRFSGSIDSSSNSASLTISGLKTEDEADYYCQSYDSSNHWVFGGGTKLTVL"}}, "data": [{"target": "T1, SARS CoV-2 spike protein (antigen of the mAb binding affinity values) (SARS CoV-2, UniProt P0DTC2 14-1213)", "assay": "assay not described; mAb; binding locale Spike S2", "units": {"mAb Binding Affinity": "ng/mL"}, "values": [{"binder": "B1", "mAb Binding Affinity": 5}, {"binder": "B2", "mAb Binding Affinity": 7}, {"binder": "B3", "mAb Binding Affinity": 3}]}, {"target": "T1, SARS CoV-2 spike protein (antigen of …)", "assay": "assay not described; mAb; binding locale Spike RBD", "units": {"mAb Binding Affinity": "ng/mL"}, "values": [{"binder": "B4", "mAb Binding Affinity": 1.53}, {"binder": "B5", "mAb Binding Affinity": 1.25}, {"binder": "B6", "mAb Binding Affinity": 5}]}]}
